Substitutions are numbered along the chain they refer to. Each block holds one binder with its values, some of them ahead of it.
How the values were obtained:
Assay in all cases: holdup assay
Design in all cases: key: below the threshold = too weak to quantify, mostly under pKd 3.1 to 4
LIN7B, Q9HAP6 = target: T1, LIN7B, Q9HAP6
T1 sequence (Q9HAP6 88-185, limits assumed, looked up): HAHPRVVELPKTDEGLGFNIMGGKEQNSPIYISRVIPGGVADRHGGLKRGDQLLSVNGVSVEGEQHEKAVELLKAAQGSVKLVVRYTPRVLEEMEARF

APBA1_1, Q02410 = target: T2, APBA1_1, Q02410
T2 sequence (Q02410 651-752, limits assumed, looked up): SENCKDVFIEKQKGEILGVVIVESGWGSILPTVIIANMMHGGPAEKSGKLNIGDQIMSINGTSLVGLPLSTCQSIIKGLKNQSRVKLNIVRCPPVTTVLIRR

SNTB1, Q13884 = target: T3, SNTB1, Q13884
T3 sequence (Q13884 107-205, limits assumed, looked up): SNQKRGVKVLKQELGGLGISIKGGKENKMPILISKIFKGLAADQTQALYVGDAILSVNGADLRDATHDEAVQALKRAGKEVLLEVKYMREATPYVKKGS

FRMPD3, Q5JV73 = target: FRMPD3, Q5JV73
Sequence of FRMPD3, Q5JV73 (Q5JV73 12-100): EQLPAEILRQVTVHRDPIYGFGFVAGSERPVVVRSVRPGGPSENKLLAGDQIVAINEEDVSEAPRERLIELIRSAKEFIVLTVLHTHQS

GRASP, Q7Z6J2 = target: GRASP, Q7Z6J2
Sequence of GRASP, Q7Z6J2 (Q7Z6J2 96-193): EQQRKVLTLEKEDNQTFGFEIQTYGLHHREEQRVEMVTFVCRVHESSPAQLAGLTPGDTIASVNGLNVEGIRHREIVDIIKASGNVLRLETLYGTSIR

NHERF3_1, Q5T2W1 = target: T4, NHERF3_1, Q5T2W1
T4 sequence (Q5T2W1 4-100, limits assumed, looked up): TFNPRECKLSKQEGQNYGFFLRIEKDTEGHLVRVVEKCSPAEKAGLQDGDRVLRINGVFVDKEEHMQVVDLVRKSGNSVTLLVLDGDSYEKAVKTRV

GRIP1_4, Q9Y3R0 = target: T5, GRIP1_4, Q9Y3R0
T5 sequence (Q9Y3R0 467-571, limits assumed, looked up): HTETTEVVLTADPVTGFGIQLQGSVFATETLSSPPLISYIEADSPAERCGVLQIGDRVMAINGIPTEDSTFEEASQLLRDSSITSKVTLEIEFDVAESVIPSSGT

APBA1_2, Q02410 = target: T6, APBA1_2, Q02410
T6 sequence (Q02410 742-832, limits assumed, looked up): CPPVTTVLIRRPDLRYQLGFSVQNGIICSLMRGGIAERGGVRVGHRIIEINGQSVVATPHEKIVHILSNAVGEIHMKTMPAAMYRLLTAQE

GOPC, Q9HD26 = target: GOPC, Q9HD26
PARD3_3, Q8TEW0 = target: PARD3_3, Q8TEW0
Sequence of PARD3_3, Q8TEW0 (Q8TEW0 582-685): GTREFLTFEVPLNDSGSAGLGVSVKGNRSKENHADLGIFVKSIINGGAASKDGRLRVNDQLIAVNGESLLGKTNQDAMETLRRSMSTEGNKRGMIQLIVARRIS

MAGI2_2, Q86UL8 = target: MAGI2_2, Q86UL8
Sequence of MAGI2_2, Q86UL8 (Q86UL8 410-522): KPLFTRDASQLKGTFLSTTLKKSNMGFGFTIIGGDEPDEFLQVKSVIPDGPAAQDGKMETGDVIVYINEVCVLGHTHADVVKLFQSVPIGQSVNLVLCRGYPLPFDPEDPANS

NHERF3_3, Q5T2W1 = target: T7, NHERF3_3, Q5T2W1
T7 sequence (Q5T2W1 238-333, limits assumed, looked up): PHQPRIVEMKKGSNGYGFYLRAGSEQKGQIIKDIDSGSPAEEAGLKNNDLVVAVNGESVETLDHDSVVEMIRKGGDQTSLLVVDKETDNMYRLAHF

HTRA4, P83105 = target: T8, HTRA4, P83105
T8 sequence (P83105 378-476, limits assumed, looked up): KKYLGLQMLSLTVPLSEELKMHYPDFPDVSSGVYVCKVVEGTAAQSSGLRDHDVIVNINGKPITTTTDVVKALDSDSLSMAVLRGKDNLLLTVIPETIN

Inadl_6, Q8NI35 = target: Inadl_6, Q8NI35
Sequence of Inadl_6, Q8NI35 (Q8NI35 1058-1167): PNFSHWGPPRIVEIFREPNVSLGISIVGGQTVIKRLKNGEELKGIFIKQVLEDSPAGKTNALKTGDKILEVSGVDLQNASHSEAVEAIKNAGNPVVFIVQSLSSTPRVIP

APBA2_2, Q99767 = target: T9, APBA2_2, Q99767
T9 sequence (Q99767 654-744, limits assumed, looked up): T6 sequence (Q02410 742-832, limits assumed, looked up) with R10K, R15K, P59A, H65Q, I66A, A70S, Y84F, A89G

MAST1, Q9Y2H9 = target: MAST1, Q9Y2H9
Sequence of MAST1, Q9Y2H9 (Q9Y2H9 962-1065): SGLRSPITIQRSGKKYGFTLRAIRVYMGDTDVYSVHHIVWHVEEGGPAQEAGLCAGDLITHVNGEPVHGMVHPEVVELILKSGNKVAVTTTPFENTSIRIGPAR

RAPGEF6, Q8TEU7 = target: T10, RAPGEF6, Q8TEU7
T10 sequence (Q8TEU7 525-625, limits assumed, looked up): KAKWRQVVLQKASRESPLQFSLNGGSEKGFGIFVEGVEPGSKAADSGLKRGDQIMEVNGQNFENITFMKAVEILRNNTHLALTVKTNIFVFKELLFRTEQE

DLG1_1, Q12959 = target: DLG1_1, Q12959
GRIP2_6, Q9C0E4 = target: GRIP2_6, Q9C0E4
Sequence of GRIP2_6, Q9C0E4 (Q9C0E4 648-740): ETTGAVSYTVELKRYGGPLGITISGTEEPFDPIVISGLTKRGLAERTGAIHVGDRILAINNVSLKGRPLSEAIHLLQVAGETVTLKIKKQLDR

LDB3, O75112 = target: LDB3, O75112
Sequence of LDB3, O75112 (O75112 1-94): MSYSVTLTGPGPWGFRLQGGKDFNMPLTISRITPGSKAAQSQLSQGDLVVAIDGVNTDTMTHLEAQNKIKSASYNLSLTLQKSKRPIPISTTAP

GRIP1_5, Q9Y3R0 = target: T11, GRIP1_5, Q9Y3R0
T11 sequence (Q9Y3R0 568-668, limits assumed, looked up): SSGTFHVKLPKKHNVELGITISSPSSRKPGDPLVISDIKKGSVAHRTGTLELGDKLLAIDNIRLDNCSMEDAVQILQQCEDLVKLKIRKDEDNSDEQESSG

DLG4_1, P78352 = target: DLG4_1, P78352
Sequence of DLG4_1, P78352 (P78352 62-152): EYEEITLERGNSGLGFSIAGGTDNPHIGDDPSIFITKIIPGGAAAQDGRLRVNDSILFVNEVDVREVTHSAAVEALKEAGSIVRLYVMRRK

FRMPD1, Q5SYB0 = target: T12, FRMPD1, Q5SYB0
T12 sequence (Q5SYB0 52-145, limits assumed, looked up): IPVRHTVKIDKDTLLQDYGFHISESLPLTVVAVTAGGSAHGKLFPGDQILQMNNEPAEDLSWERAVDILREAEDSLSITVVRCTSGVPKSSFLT

DLG2_3, Q15700 = target: DLG2_3, Q15700
LAP2, Q96RT1 = target: LAP2, Q96RT1
Sequence of LAP2, Q96RT1 (Q96RT1 other isoform, or with tags, fused parts or gaps): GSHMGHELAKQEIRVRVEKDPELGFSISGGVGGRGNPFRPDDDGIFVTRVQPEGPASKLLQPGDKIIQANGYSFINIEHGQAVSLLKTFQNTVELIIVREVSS

GORASP2, Q9H8Y8 = target: GORASP2, Q9H8Y8
[1] = plain residues with an end cap or a label only (N-terminal biotin on a linker: ado-ado)
[2] = modified: acetyl on K at position -1 from the C-terminal residue
[3] = modified: phospho on S at position -3 from the C-terminal residue

Binder: TMQMSLKDLL [GLA, P06280]
pKd (LIN7B, Q9HAP6; [1]): 3.65
pKd (APBA1_1, Q02410; [1]): below the threshold
pKd (SNTB1, Q13884; [1]): below the threshold
pKd (FRMPD3, Q5JV73; [1]): below the threshold
pKd (GRASP, Q7Z6J2; [1]): 4.6
pKd (NHERF3_1, Q5T2W1; [1]): 4.34
pKd (GRIP1_4, Q9Y3R0; [1]): below the threshold
pKd (APBA1_2, Q02410; [1]): 3.53
pKd (GOPC, Q9HD26; [1]): 3.49
pKd (PARD3_3, Q8TEW0; [1]): 3.54
pKd (MAGI2_2, Q86UL8; [1]): below the threshold
pKd (NHERF3_3, Q5T2W1; [1]): below the threshold
pKd (HTRA4, P83105; [1]): below the threshold
pKd (Inadl_6, Q8NI35; [1]): below the threshold
pKd (APBA2_2, Q99767; [1]): below the threshold
pKd (MAST1, Q9Y2H9; [1]): 4.03
pKd (RAPGEF6, Q8TEU7; [1]): 3.69
pKd (DLG1_1, Q12959; [1]): below the threshold
pKd (GRIP2_6, Q9C0E4; [1]): below the threshold
pKd (LDB3, O75112; [1]): below the threshold
pKd (GRIP1_5, Q9Y3R0; [1]): 3.51
pKd (DLG4_1, P78352; [1]): below the threshold
pKd (FRMPD1, Q5SYB0; [1]): below the threshold
pKd (DLG2_3, Q15700; [1]): 3.52
pKd (LAP2, Q96RT1; [1]): below the threshold
pKd (GORASP2, Q9H8Y8; [1]): 3.51

Binder: LETREPTNTL [GRIP1, Q9Y3R0]
pKd (LIN7B, Q9HAP6; [1]): below the threshold
pKd (APBA1_1, Q02410; [1]): below the threshold
pKd (SNTB1, Q13884; [1]): below the threshold
pKd (FRMPD3, Q5JV73; [1]): below the threshold
pKd (GRASP, Q7Z6J2; [1]): below the threshold
pKd (NHERF3_1, Q5T2W1; [1]): below the threshold
pKd (GRIP1_4, Q9Y3R0; [1]): below the threshold
pKd (APBA1_2, Q02410; [1]): below the threshold
pKd (GOPC, Q9HD26; [1]): below the threshold
pKd (PARD3_3, Q8TEW0; [1]): below the threshold
pKd (MAGI2_2, Q86UL8; [1]): below the threshold
pKd (NHERF3_3, Q5T2W1; [1]): below the threshold
pKd (HTRA4, P83105; [1]): below the threshold
pKd (Inadl_6, Q8NI35; [1]): below the threshold
pKd (APBA2_2, Q99767; [1]): below the threshold
pKd (MAST1, Q9Y2H9; [1]): below the threshold
pKd (RAPGEF6, Q8TEU7; [1]): below the threshold
pKd (DLG1_1, Q12959; [1]): below the threshold
pKd (GRIP2_6, Q9C0E4; [1]): below the threshold
pKd (LDB3, O75112; [1]): below the threshold
pKd (GRIP1_5, Q9Y3R0; [1]): below the threshold
pKd (DLG4_1, P78352; [1]): below the threshold
pKd (FRMPD1, Q5SYB0; [1]): below the threshold
pKd (DLG2_3, Q15700; [1]): below the threshold
pKd (LAP2, Q96RT1; [1]): below the threshold
pKd (GORASP2, Q9H8Y8; [1]): below the threshold

Binder: RALRASESGI [ADGRE5, P48960]
pKd (LIN7B, Q9HAP6; [1]): 3.62
pKd (APBA1_1, Q02410; [1]): below the threshold
pKd (SNTB1, Q13884; [1]): below the threshold
pKd (FRMPD3, Q5JV73; [1]): below the threshold
pKd (GRASP, Q7Z6J2; [1]): below the threshold
pKd (NHERF3_1, Q5T2W1; [1]): below the threshold
pKd (GRIP1_4, Q9Y3R0; [1]): below the threshold
pKd (APBA1_2, Q02410; [1]): below the threshold
pKd (GOPC, Q9HD26; [1]): below the threshold
pKd (PARD3_3, Q8TEW0; [1]): below the threshold
pKd (MAGI2_2, Q86UL8; [1]): below the threshold
pKd (NHERF3_3, Q5T2W1; [1]): below the threshold
pKd (HTRA4, P83105; [1]): 3.62
pKd (Inadl_6, Q8NI35; [1]): below the threshold
pKd (APBA2_2, Q99767; [1]): below the threshold
pKd (MAST1, Q9Y2H9; [1]): below the threshold
pKd (RAPGEF6, Q8TEU7; [1]): below the threshold
pKd (DLG1_1, Q12959; [1]): below the threshold
pKd (GRIP2_6, Q9C0E4; [1]): below the threshold
pKd (LDB3, O75112; [1]): below the threshold
pKd (GRIP1_5, Q9Y3R0; [1]): below the threshold
pKd (DLG4_1, P78352; [1]): below the threshold
pKd (FRMPD1, Q5SYB0; [1]): below the threshold
pKd (DLG2_3, Q15700; [1]): below the threshold
pKd (LAP2, Q96RT1; [1]): below the threshold
pKd (GORASP2, Q9H8Y8; [1]): below the threshold

Second part, the binder after the results:

pKd (LIN7B, Q9HAP6; [2]): 3.57
pKd (APBA1_1, Q02410; [2]): below the threshold
pKd (SNTB1, Q13884; [2]): 4.79
pKd (FRMPD3, Q5JV73; [2]): below the threshold
pKd (GRASP, Q7Z6J2; [2]): 5.32
pKd (NHERF3_1, Q5T2W1; [2]): 4.16
pKd (GRIP1_4, Q9Y3R0; [2]): below the threshold
pKd (APBA1_2, Q02410; [2]): 4.26
pKd (GOPC, Q9HD26; [2]): 4.19
pKd (PARD3_3, Q8TEW0; [2]): 3.97
pKd (MAGI2_2, Q86UL8; [2]): 3.77
pKd (NHERF3_3, Q5T2W1; [2]): below the threshold
pKd (HTRA4, P83105; [2]): 3.68
pKd (Inadl_6, Q8NI35; [2]): 4.37
pKd (APBA2_2, Q99767; [2]): below the threshold
pKd (MAST1, Q9Y2H9; [2]): 4.66
pKd (RAPGEF6, Q8TEU7; [2]): below the threshold
pKd (DLG1_1, Q12959; [2]): 4.15
pKd (GRIP2_6, Q9C0E4; [2]): below the threshold
pKd (LDB3, O75112; [2]): below the threshold
pKd (GRIP1_5, Q9Y3R0; [2]): below the threshold
pKd (DLG4_1, P78352; [2]): 3.98
pKd (FRMPD1, Q5SYB0; [2]): below the threshold
pKd (DLG2_3, Q15700; [2]): below the threshold
pKd (LAP2, Q96RT1; [2]): 3.93
pKd (GORASP2, Q9H8Y8; [2]): 4.06
Binder: DEDQHTQITKV [PTEN_Ac, P60484]

pKd (LIN7B, Q9HAP6; [3]): below the threshold
pKd (APBA1_1, Q02410; [3]): below the threshold
pKd (SNTB1, Q13884; [3]): 4.39
pKd (FRMPD3, Q5JV73; [3]): below the threshold
pKd (GRASP, Q7Z6J2; [3]): below the threshold
pKd (NHERF3_1, Q5T2W1; [3]): below the threshold
pKd (GRIP1_4, Q9Y3R0; [3]): below the threshold
pKd (APBA1_2, Q02410; [3]): below the threshold
pKd (GOPC, Q9HD26; [3]): below the threshold
pKd (PARD3_3, Q8TEW0; [3]): 3.76
pKd (MAGI2_2, Q86UL8; [3]): 3.57
pKd (NHERF3_3, Q5T2W1; [3]): below the threshold
pKd (HTRA4, P83105; [3]): 3.72
pKd (Inadl_6, Q8NI35; [3]): below the threshold
pKd (APBA2_2, Q99767; [3]): below the threshold
pKd (MAST1, Q9Y2H9; [3]): below the threshold
pKd (RAPGEF6, Q8TEU7; [3]): below the threshold
pKd (DLG1_1, Q12959; [3]): 3.69
pKd (GRIP2_6, Q9C0E4; [3]): below the threshold
pKd (LDB3, O75112; [3]): below the threshold
pKd (GRIP1_5, Q9Y3R0; [3]): below the threshold
pKd (DLG4_1, P78352; [3]): below the threshold
pKd (FRMPD1, Q5SYB0; [3]): below the threshold
pKd (DLG2_3, Q15700; [3]): below the threshold
pKd (LAP2, Q96RT1; [3]): below the threshold
pKd (GORASP2, Q9H8Y8; [3]): 3.56
Binder: RRVRKLPSTTL [RPS6KA1_-3P, Q15418]

Source: paper PMC9482650, “Quantitative fragmentomics allow affinity mapping of interactomes” (Nature Communications, 2022)
